Biological target: human Tau441 (2N4R), recombinant, phosphorylated in vitro by PKA (human) (UniProt P10636)
Assay: cross-linking + other: mass photometry; BS3 amine-amine crosslinking of purified 4R tau (tau441, with or without PKA phosphorylation) with purified recombinant 14-3-3 β, 20-fold molar excess, 1× PBS pH 8.0, 30 min room temperature; mass photometry in DPBS at room temperature

Chain of human Tau441 (2N4R), recombinant, phosphorylated in vitro by PKA (human) (P10636 other isoform, or with tags, fused parts or gaps): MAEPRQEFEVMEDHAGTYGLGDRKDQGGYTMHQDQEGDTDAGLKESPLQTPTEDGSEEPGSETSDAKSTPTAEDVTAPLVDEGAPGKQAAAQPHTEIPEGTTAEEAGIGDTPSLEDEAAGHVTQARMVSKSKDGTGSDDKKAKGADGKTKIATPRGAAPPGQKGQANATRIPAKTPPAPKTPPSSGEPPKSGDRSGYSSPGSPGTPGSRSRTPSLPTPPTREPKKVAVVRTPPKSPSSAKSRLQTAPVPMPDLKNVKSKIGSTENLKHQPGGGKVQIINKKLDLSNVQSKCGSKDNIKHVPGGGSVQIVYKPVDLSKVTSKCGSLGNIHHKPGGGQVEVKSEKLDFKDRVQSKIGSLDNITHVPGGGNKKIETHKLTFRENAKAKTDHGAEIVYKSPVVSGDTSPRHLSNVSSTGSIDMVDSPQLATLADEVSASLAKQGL

stoichiometry N (14-3-3-β per tau): 2
Substance: purified recombinant 14-3-3 β (from UniProt P31946 1-246) (natural protein)

— article PMC10035768
